Patent publication US6057104
Each block holds one substance with its values, some of them ahead of it.

Legend:
[1] = target: MmRad51, full length, fused to the GAL4 DNA-binding domain (the "bait") (mouse); test: yeast two-hybrid in HF7c cells, full length MmRad51 bait, X-gal staining
[2] = target: MmRad51, full length, fused to the GAL4 DNA-binding domain (the "bait") (mouse); test: yeast two-hybrid in HF7c cells, full length MmRad51 bait; relative to full length MmRad51 prey as 100%
[3] = target: MmRad51, full length, fused to the GAL4 DNA-binding domain (the "bait") (mouse); test: yeast two-hybrid in HF7c cells, full length MmRad51 bait; relative to the positive control
[4] = target: MmRad51, full length, fused to the GAL4 DNA-binding domain (the "bait") (mouse); test: yeast two-hybrid in HF7c cells, full length MmRad51 bait; the reference of the scale
[5] = target: mammalian Rad51 (MmRad51), wild-type protein of the cells (mouse)
[6] = target: MmRad51, full length, fused to the GAL4 DNA-binding domain (the "bait") (mouse); test: yeast two-hybrid against full length MmRad51

- time until yeast cells stained blue [1]: < 5 min
- relative β-galactosidase activity [2]: 43%
Substance: MmRad51 deletion TR1-43, as two-hybrid prey

- time until yeast cells stained blue [1]: 30 min
- relative β-galactosidase activity [2]: 4%
Substance: MmRad51 deletion TR1-93, as two-hybrid prey

- relative β-galactosidase activity [3]: 11%
Substance: MmRad51 deletion TR1-131, as two-hybrid prey

- relative β-galactosidase activity [3]: 9%
Substance: MmRad51 deletion TR1-175, as two-hybrid prey

- relative β-galactosidase activity [2]: 1
Substance: MmRad51 deletion TR43-339, as two-hybrid prey

- relative β-galactosidase activity [2]: 1
Substance: MmRad51 deletion TR131-339, as two-hybrid prey

- relative β-galactosidase activity [4]: 100%
Substance: MmRad51, full length, as two-hybrid prey

- relative targeting frequency (TG^r +G418^r /G418^r colonies) at HPRT in ES cells, IVH-tk as 100% [5]: 54%
Substance: altered Rad51 product encoded by rad51K-A134, expressed in ES cells

- relative β-galactosidase activity [6]: 90%
Substance: rad51K-A134 product, as tested in the yeast two-hybrid system
